The text below walks through data of paper PMC8752512 (Journal of molecular biology, 2021).

The test concerns the target Fgr SH3 domain (human, UniProt P09769 77-138, uniformly 15N-labelled). Put plainly: NMR titration.

Consider PPTPNPPRPP [arrestin-3 aSwI peptide (PPTPNPPRPP)], for which the Kd was found to be 347 µM.

In general, Kd refers to the constant that tells how readily two partners part at equilibrium. A lower Kd goes with tighter binding.
